How the values were obtained:
Siglec-7-ECD [1] = target: T1, Siglec-7-ECD (human, UniProt Q9Y286 19-353); experiment: bio-layer interferometry (ForteBio), 25 C, antibody captured on the sensor, Siglec-7-ECD as analyte 50 to 1.56 nM, 1:1 global fit
T1 construct: also called p75; AIRM
Procedure: Antibody binding analysis was carried out by bio-layer interferometry (ForteBio). […] Antibodies were captured on anti-mouse kinetic sensors at 0.5 ug/mL; Siglec-7-ECD was used as analyte and diluted in assay buffer from 50 nM to 1.56 nM with 2× dilutions. Two-minute associations were conducted, followed by 10-minute dissociations. Results were determined relative to a control empty reference AHC sensor, and analyzed using ForteBio analysis software with 1:1 global fit parameters.

Siglec-7-ECD [2] = target: T1, Siglec-7-ECD; experiment: bio-layer interferometry (ForteBio), 25 C, antibody captured on the sensor, Siglec-7-ECD as analyte 50 to 1.56 nM, 1:1 global fit; the same value stands beside the sensorgrams ('QA79 KD=706pM', four traces up to about 0.16 nm, visible dissociation to 780 s)
Siglec-7-ECD-Fc = target: T2, Siglec-7-ECD-Fc (human, UniProt Q9Y286 19-353); experiment: ligand blocking assay, flow cytometry: antibody (40 nM to 40 pM) mixed with 10 nM Siglec-7-ECD-Fc; blocked: binding of Siglec-7-ECD-Fc to its ligands on A375 melanoma cells
T2 construct: also called recombinant Siglec-7-Fc; Siglec-7-ECD-huFc; not shown: human Fc (huFc)
T2 sequence (Q9Y286 19-353): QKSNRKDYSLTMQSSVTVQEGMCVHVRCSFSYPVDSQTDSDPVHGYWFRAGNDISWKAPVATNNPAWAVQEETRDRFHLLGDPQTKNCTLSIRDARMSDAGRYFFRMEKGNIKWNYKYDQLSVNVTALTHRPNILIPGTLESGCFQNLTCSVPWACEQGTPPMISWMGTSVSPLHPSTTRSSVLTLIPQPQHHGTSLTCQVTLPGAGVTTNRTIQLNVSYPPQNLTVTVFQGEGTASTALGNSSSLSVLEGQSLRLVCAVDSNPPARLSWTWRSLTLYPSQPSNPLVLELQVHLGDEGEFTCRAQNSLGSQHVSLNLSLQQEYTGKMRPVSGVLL
Procedure: Recombinant Siglec-7-Fc was added to A375 cells in the presence of anti-Siglec-7 antibodies at increasing concentrations and binding of the complex was detected on the cell surface.
Human melanoma cell line A375, which expresses high level of ligands for Siglec-7, was used to determine the blocking activity of anti-Siglec-7 antibodies in a cell based assay. Two-fold serial dilutions of anti-Siglec-7 antibodies (40 nM to 40 pM) were combined with 10 nM Siglec-7-ECD-Fc in FACS buffer (PBS/2% BSA) and incubated on ice for 30 minutes. 2.5×10e4 A375 cells per well were added to round bottom 96-well tissue culture plates in FACS buffer, plates were centrifuged at 400 g for 2 min, supernatant was removed and cells were re-suspended in 100 ul of the antibody-Siglec-7 complexes. After a 1 hour incubation on ice, cells were washed twice and incubated for 30 minutes with goat anti-human F(ab′)2 fragment conjugated to AF647 (Jackson IR labs) at 1 ug/ml in FACS buffer. After two more washes, cells were fixed in PBS/2% PFA and acquired on a Novocyte flow cytometer (ACEA biosciences). IC₅₀ values for blocking were determined based on plotting mean fluorescence in the APC channel and analysis using Prism Graphpad software.

[3] = target: Siglec-7 on primary human NK cells (human, UniProt Q9Y286 19-467); experiment: cell-based or functional assay
Chain of Siglec-7 on primary human NK cells (Q9Y286 19-467 limits assumed): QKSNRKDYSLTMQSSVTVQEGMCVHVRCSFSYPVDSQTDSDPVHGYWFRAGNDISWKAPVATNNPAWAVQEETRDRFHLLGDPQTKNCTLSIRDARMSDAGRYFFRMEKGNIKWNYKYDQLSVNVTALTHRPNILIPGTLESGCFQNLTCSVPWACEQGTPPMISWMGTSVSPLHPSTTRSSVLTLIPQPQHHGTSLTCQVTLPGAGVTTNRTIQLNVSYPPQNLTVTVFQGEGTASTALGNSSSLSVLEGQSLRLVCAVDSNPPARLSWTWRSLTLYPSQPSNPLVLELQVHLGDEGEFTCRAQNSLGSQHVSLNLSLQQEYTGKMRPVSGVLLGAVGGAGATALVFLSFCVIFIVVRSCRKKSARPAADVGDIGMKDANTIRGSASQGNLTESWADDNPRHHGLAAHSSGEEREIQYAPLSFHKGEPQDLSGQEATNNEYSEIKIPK

T1 sequence (Q9Y286 19-353 limits assumed): as the sequence (Q9Y286 19-353) above

| Kd (Siglec-7-ECD [1]) [pM] | Kd (Siglec-7-ECD [2]) [pM] | IC50 (Siglec-7-ECD-Fc) [pM] | IC50 (read off the curve), internalization of Siglec-7 [3] [pM] | Molecule |
| --- | --- | --- | --- | --- |
| 86 |  |  |  | anti-Siglec-7 antibody Z176 |
|  | 706 | 7490 |  | anti-Siglec-7 antibody QA79 |
| 422 |  | 4260 |  | anti-Siglec-7 antibody S7.7 |
| 1 |  | 5330 |  | 5215-9 (antibody, V domains shown, anti-Siglec-7 monoclonal antibody of the panel) VH: EVQLQQSGAELVKSGASVKLSCTASGFNIKDTYMHWVKQRPEKGLEWIGWIDPADGHTKYDPKFQGKATITADTSSNTAYLHLSSLTSEDAAVYYCPRGGSSPYFDYWGQGTTLTVSS VL: DIVLTQSPASLTISLGQRATISCRASQSVSTSTYSYIHWYQQKPGQPPKLLIKYASNLASGVPARFSGSGSGTDFSLSIHPMEEEDTATYYCQHSWKIPFTFGSGTKLEIK |
|  |  |  | ~10 | monoclonal antibody 8A2 (antibody, V domains shown) VH: QVQLKESGPGLVAPSQSLSITCTVSGFSLTTYGVDWVRQFPGKGLEWLGVIWGGGNTNYNSALMSRLSISKDTSKSQVFLKMNSLQTDDTAMYYCAKHKGTSHAMEYWGQGTSVTVSS VL: QIVLTQSPAIMSASPGEKVTMTCSASSRVIFMYWYQQKPGSSPRLLIYDTSNLASGVPVRFSGGGSGTSYSLTISRMEAEDAATYYCQQWSSYPPTFGAGTKLELK |
|  |  |  | ~10 | monoclonal antibody 3F1 (antibody, V domains shown) VH: EFQLQQSGPEMVKPGASVKMSCKASGDSFTDYKINWVKQNNGKSLEWIGVINPDSGTTSYNQIFEGKATLTVDQSSSTAYMQVNRLTSEDSAVYYCTTWDDYSFYAMDYWGQGTSVTVSS VL: DVLMTQTPLSLPVSLGDQASISCRSSQNIVHSNGNTYLEWFLQKPGQSPKLLIYKVSNRFSGVPDRFSGSGSGTDFTLKISRVEAEDLGVYYCFQGSHIPWTFGGGTKLEIK |
|  |  |  | ~10 | monoclonal antibody 16H11 (antibody, V domains shown) VH: QVQLHQSGAELVKPGASVKISCKGSGYDFSNFWMNWVKQRPGKGLEWIGQIYPGDGEIKYNGKFKGKATLTADESSSTAYIHLSSLTSEDSAVYFCARDDYLRAMDYWGQGTSVTVSS VL: DIQMTQSPASLSASVGETVTITCRASGNIHNYLAWFQQKQGKSPHFLVYSAKALADGVPSRFSGSGSGTQYSLKINSLQPEDFGTYYCQHFWSSPYTFGGGTKLEIK |
| 149 |  | 4120 |  | 5215-2 (antibody, V domains shown, anti-Siglec-7 monoclonal antibody of the panel) VH: DVQLQESGPGLVKPSQSLSLTCTVTGYSITSDYVWTWIRQFPGNKLEWMGYITYSDSTNYNPSLKSRLSITRDTSKNQFFLQLSSVTTEDTATYFCARSLTGNYFDYWGQGTTLTVSS VL: VIVLTQSPASLEVSLGQRATISCRASQTVRISSYSYMNWYQQKPGQPPKLLIKYASNLESGVPARFSGSGSGTDFTLNIHPVEEEDTATYYCQHSWKIPTFGGGTKLEIK |
| 990 |  | 1320 |  | 5215-13 (antibody, V domains shown, anti-Siglec-7 monoclonal antibody of the panel) VH: EVQLQQSGAELVKPGASVKLSCTVSGFNFKDTYIHWVKQRPEQGLEWIGRIDPANGNTKYASKFQDKATITADTSSNTVYMQLSSLTSEDTAVYYCTRGWDGYYFDCWGQGTTLTVSS VL: DIVLTQSPASLVVSLGLRATISCRASQSVSTSSHSYLHWYQQKPGQPPKLLIKYASNLASGVPARFSGSGSGADFTLNIHPVEEEDTATYYCQHSWEIPYTFGGGTKLEIK |
